Read-outs that look alike come from different tables or passages of the source.
Legend:
[1] = molecular target: apomucin (deglycosylated mucin) prepared from bovine submaxillary mucin (bovine)
[2] = molecular target: apomucin (deglycosylated mucin) prepared from bovine submaxillary mucin (bovine); remark: listed apart in the source
[3] = molecular target: serine containing acceptor peptide …
[4] = molecular target: serine containing acceptor peptide …; remark: listed apart in the source

| Total activity (U), cell lysate [1] [U] | specific activity [2] [U/mg protein] | Km [3] [mM] | Km [4] [mM] | Substance |
| --- | --- | --- | --- | --- |
| 16.2 |  |  |  | cloned full-length (membrane bound) bovine GalNAc-transferase expressed in Sf9 cells (enzyme) |
|  | 2160 | 3.6 | 3.5 | soluble, secreted recombinant bovine GalNAc-transferase (GalNAcTs) expressed in Sf9 cells (enzyme) |
